According to patent US20140087995A1 (published 2014):
Numbered stars: 1 amine (or outer) side, 2 acyl side, 3 side chain; on linkers, the order of the positions; unused ones are H or OH. Bridge positions count the residues as written; N and C are the ends. Side chains are listed from the residue outwards. Ends that are not written are not given here. * marks the point of attachment. C20 diacid = O=C(O)CCCCCCCCCCCCCCCCCCC(=O)*; γGlu = O=C(O)[C@H](CCC(=O)[*:2])N[*:1]; AEEA = NCCOCCOCC(=O)O

biological target: T1, rat amylin receptor (rat calcitonin receptor + rat RAMP 3) (rat, UniProt P32214 25-516; Q9JJ73 23-147); test: SPA competition with 125I-rat amylin, membranes of BHK cells with rat calcitonin receptor + rat RAMP3 (Assay VI)
T1 construct: whole, on cells; membranes of transiently transfected BHK tk'ts 13 cells (Assay VI); also called rAmylin-R; rat amylin 3(a) receptor
T1 sequence (looked up) 1: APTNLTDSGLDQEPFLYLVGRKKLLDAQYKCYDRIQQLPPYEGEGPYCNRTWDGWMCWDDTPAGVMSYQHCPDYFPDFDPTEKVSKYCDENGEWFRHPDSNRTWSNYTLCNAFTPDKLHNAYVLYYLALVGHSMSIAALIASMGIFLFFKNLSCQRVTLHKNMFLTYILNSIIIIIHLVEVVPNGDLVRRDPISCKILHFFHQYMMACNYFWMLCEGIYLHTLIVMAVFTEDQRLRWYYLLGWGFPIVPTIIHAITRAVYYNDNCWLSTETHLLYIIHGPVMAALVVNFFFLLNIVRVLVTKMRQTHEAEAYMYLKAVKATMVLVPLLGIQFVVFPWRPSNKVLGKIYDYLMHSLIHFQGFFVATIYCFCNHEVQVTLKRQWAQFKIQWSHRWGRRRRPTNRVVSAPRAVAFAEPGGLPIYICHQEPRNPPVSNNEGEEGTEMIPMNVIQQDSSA
T1 sequence (looked up) 2: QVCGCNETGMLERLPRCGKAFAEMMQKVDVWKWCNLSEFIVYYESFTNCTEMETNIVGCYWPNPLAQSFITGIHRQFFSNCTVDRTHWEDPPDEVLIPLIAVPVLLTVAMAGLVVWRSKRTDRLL

| Binder | IC50 |
| --- | --- |
| K([AEEA-γGlu-C20 diacid])CNTATCATQRLANFLRHSSPNFGAIPSSTNVGSRTY-NH2 (disulfide 2-7 (inferred), analogue of human amylin; also called compound 38) | 0.383 nM |
| K([γGlu-γGlu-C20 diacid])CNTATCATQRLADFLRHSSPNFGAIPSSTNVGSRTY-NH2 (disulfide 2-7 (inferred), analogue of human amylin; also called compound 52) | 0.335 nM |

biological target: T2, human calcitonin receptor (human, UniProt P30988 25-474); test: cell-based or functional assay
T2 sequence (looked up): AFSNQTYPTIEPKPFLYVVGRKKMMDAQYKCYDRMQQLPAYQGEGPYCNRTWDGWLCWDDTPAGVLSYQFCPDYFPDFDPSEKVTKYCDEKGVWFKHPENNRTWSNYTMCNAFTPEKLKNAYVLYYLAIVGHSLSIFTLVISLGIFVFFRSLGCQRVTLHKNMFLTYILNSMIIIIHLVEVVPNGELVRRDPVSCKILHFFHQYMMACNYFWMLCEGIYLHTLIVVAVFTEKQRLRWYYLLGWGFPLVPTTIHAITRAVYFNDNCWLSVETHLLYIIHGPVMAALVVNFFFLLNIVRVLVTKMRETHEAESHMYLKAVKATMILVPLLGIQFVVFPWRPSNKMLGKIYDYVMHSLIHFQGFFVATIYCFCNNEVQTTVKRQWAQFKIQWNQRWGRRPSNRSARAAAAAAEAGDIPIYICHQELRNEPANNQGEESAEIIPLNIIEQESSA

| Binder | hCTR funct. EC50 |
| --- | --- |
| KCNTATCATQRLANFLRHSSPNFGAIPSSTNVGSNTY (alpha-amino group of N-terminal Lys1 acylated with C20 diacid via gGlu-2xOEG linker; disulfide Cys2-Cys7; C-terminal amide, h-amylin derivative; disulfide bridge and C-terminal amide as told for human amylin; also called compound 24) | 10 nM |
| KCNTATCATQRLAEFLRHSSPNFGAIPSSTNVGSNTY (alpha-amino group of N-terminal Lys1 acylated with C20 diacid via gGlu-2xOEG linker; disulfide Cys2-Cys7; C-terminal amide, h-amylin derivative; disulfide bridge and C-terminal amide as told for human amylin; also called compound 19) | 5.32 nM |
| KCNTATCATQRLANFLRHSSPNFGAIPSSTNVGRNTY (alpha-amino group of N-terminal Lys1 acylated with C20 diacid via gGlu linker; disulfide Cys2-Cys7; C-terminal amide, h-amylin derivative; disulfide bridge and C-terminal amide as told for human amylin; also called compound 39) [N^α1-[(4S)-4-carboxy-4-(19-carboxynonadecanoylamino)butanoyl]-[Arg17,Pro21,Pro27,Arg34]-h-amylin] | 2.52 nM |
| KCNTATCATQRLANFLRHSSPNFGAIPSSTNVGSETY (alpha-amino group of N-terminal Lys1 acylated with C20 diacid via gGlu linker; disulfide Cys2-Cys7; C-terminal amide, h-amylin derivative; disulfide bridge and C-terminal amide as told for human amylin; also called compound 23) [N^α1-[(4S)-4-carboxy-4-(19-carboxynonadecanoylamino)butanoyl]-[Arg17,Pro21,Pro27,Glu35]-h-amylin] | 3.02 nM |
| KCNTATCATQRLANFLRHSSPNFGAIPSSTNVGHNTY (alpha-amino group of N-terminal Lys1 acylated with C20 diacid via gGlu linker; disulfide Cys2-Cys7; C-terminal amide, h-amylin derivative; disulfide bridge and C-terminal amide as told for human amylin; also called compound 40) [N^α1-[(4S)-4-carboxy-4-(19-carboxynonadecanoylamino)butanoyl]-[Arg17,Pro21,Pro27,His34]-h-amylin] | 2.68 nM |
| KCNTATCATQRLANFLRHSSPNFGAIPSSTNVGSKTY (alpha-amino group of N-terminal Lys1 acylated with C20 diacid via gGlu linker; disulfide Cys2-Cys7; C-terminal amide, h-amylin derivative; disulfide bridge and C-terminal amide as told for human amylin; also called compound 34) [N^α1-[(4S)-4-carboxy-4-(19-carboxynonadecanoylamino)butanoyl]-[Arg17,Pro21,Pro27,Lys35]-h-amylin] | 2.62 nM |
| {C20 diacid-γGlu}-KCNTATCATQRLANFLRHSSPNFGAIPSSTPVGSETY-NH2 (disulfide 2-7; SMILES CC[C@H](C)[C@H](NC(=O)[C@H](C)NC(=O)CNC(=O)[C@H](Cc1ccccc1)NC(=O)[C@H](CC(N)=O)NC(=O)[C@@H]1CCCN1C(=O)[C@H](CO)NC(=O)[C@H](CO)NC(=O)[C@H](Cc1c[nH]cn1)NC(=O)[C@H](CCCNC(=N)N)NC(=O)[C@H](CC(C)C)NC(=O)[C@H](Cc1ccccc1)NC(=O)[C@H](CC(N)=O)NC(=O)[C@H](C)NC(=O)[C@H](CC(C)C)NC(=O)[C@H](CCCNC(=N)N)NC(=O)[C@H](CCC(N)=O)NC(=O)[C@@H](NC(=O)[C@H](C)NC(=O)[C@@H]1CSSC[C@H](NC(=O)[C@H](CCCCN)NC(=O)CC[C@H](NC(=O)CCCCCCCCCCCCCCCCCCC(=O)O)C(=O)O)C(=O)N[C@@H](CC(N)=O)C(=O)N[C@@H]([C@@H](C)O)C(=O)N[C@@H](C)C(=O)N[C@@H]([C@@H](C)O)C(=O)N1)[C@@H](C)O)C(=O)N1CCC[C@H]1C(=O)N[C@@H](CO)C(=O)N[C@@H](CO)C(=O)N[C@H](C(=O)N1CCC[C@H]1C(=O)N[C@H](C(=O)NCC(=O)N[C@@H](CO)C(=O)N[C@@H](CCC(=O)O)C(=O)N[C@H](C(=O)N[C@@H](Cc1ccc(O)cc1)C(N)=O)[C@@H](C)O)C(C)C)[C@@H](C)O, h-amylin derivative; disulfide bridge and C-terminal amide as told for human amylin; also called compound 28) | 2.03 nM |
| {C20 diacid-γGlu}-KCNTATCATQRLANFLRHSSPNFGAIPSSTNVGPETY-NH2 (disulfide 2-7; SMILES CC[C@H](C)[C@H](NC(=O)[C@H](C)NC(=O)CNC(=O)[C@H](Cc1ccccc1)NC(=O)[C@H](CC(N)=O)NC(=O)[C@@H]1CCCN1C(=O)[C@H](CO)NC(=O)[C@H](CO)NC(=O)[C@H](Cc1c[nH]cn1)NC(=O)[C@H](CCCNC(=N)N)NC(=O)[C@H](CC(C)C)NC(=O)[C@H](Cc1ccccc1)NC(=O)[C@H](CC(N)=O)NC(=O)[C@H](C)NC(=O)[C@H](CC(C)C)NC(=O)[C@H](CCCNC(=N)N)NC(=O)[C@H](CCC(N)=O)NC(=O)[C@@H](NC(=O)[C@H](C)NC(=O)[C@@H]1CSSC[C@H](NC(=O)[C@H](CCCCN)NC(=O)CC[C@H](NC(=O)CCCCCCCCCCCCCCCCCCC(=O)O)C(=O)O)C(=O)N[C@@H](CC(N)=O)C(=O)N[C@@H]([C@@H](C)O)C(=O)N[C@@H](C)C(=O)N[C@@H]([C@@H](C)O)C(=O)N1)[C@@H](C)O)C(=O)N1CCC[C@H]1C(=O)N[C@@H](CO)C(=O)N[C@@H](CO)C(=O)N[C@H](C(=O)N[C@@H](CC(N)=O)C(=O)N[C@H](C(=O)NCC(=O)N1CCC[C@H]1C(=O)N[C@@H](CCC(=O)O)C(=O)N[C@H](C(=O)N[C@@H](Cc1ccc(O)cc1)C(N)=O)[C@@H](C)O)C(C)C)[C@@H](C)O, h-amylin derivative; disulfide bridge and C-terminal amide as told for human amylin; also called compound 29) | 0.857 nM |
| {C20 diacid-γGlu}-KCNTATCATQRLAEFLRHSSPNFGAIPSSTNVGSRTY-NH2 (disulfide 2-7; SMILES CC[C@H](C)[C@H](NC(=O)[C@H](C)NC(=O)CNC(=O)[C@H](Cc1ccccc1)NC(=O)[C@H](CC(N)=O)NC(=O)[C@@H]1CCCN1C(=O)[C@H](CO)NC(=O)[C@H](CO)NC(=O)[C@H](Cc1c[nH]cn1)NC(=O)[C@H](CCCNC(=N)N)NC(=O)[C@H](CC(C)C)NC(=O)[C@H](Cc1ccccc1)NC(=O)[C@H](CCC(=O)O)NC(=O)[C@H](C)NC(=O)[C@H](CC(C)C)NC(=O)[C@H](CCCNC(=N)N)NC(=O)[C@H](CCC(N)=O)NC(=O)[C@@H](NC(=O)[C@H](C)NC(=O)[C@@H]1CSSC[C@H](NC(=O)[C@H](CCCCN)NC(=O)CC[C@H](NC(=O)CCCCCCCCCCCCCCCCCCC(=O)O)C(=O)O)C(=O)N[C@@H](CC(N)=O)C(=O)N[C@@H]([C@@H](C)O)C(=O)N[C@@H](C)C(=O)N[C@@H]([C@@H](C)O)C(=O)N1)[C@@H](C)O)C(=O)N1CCC[C@H]1C(=O)N[C@@H](CO)C(=O)N[C@@H](CO)C(=O)N[C@H](C(=O)N[C@@H](CC(N)=O)C(=O)N[C@H](C(=O)NCC(=O)N[C@@H](CO)C(=O)N[C@@H](CCCNC(=N)N)C(=O)N[C@H](C(=O)N[C@@H](Cc1ccc(O)cc1)C(N)=O)[C@@H](C)O)C(C)C)[C@@H](C)O, h-amylin derivative; disulfide bridge and C-terminal amide as told for human amylin; also called compound 16) | 2.21 nM |
| {C20 diacid-γGlu}-KCNTATCATQRLAEFLRHSSPNFGAIPSSTNVGHNTY-NH2 (disulfide 2-7; SMILES CC[C@H](C)[C@H](NC(=O)[C@H](C)NC(=O)CNC(=O)[C@H](Cc1ccccc1)NC(=O)[C@H](CC(N)=O)NC(=O)[C@@H]1CCCN1C(=O)[C@H](CO)NC(=O)[C@H](CO)NC(=O)[C@H](Cc1c[nH]cn1)NC(=O)[C@H](CCCNC(=N)N)NC(=O)[C@H](CC(C)C)NC(=O)[C@H](Cc1ccccc1)NC(=O)[C@H](CCC(=O)O)NC(=O)[C@H](C)NC(=O)[C@H](CC(C)C)NC(=O)[C@H](CCCNC(=N)N)NC(=O)[C@H](CCC(N)=O)NC(=O)[C@@H](NC(=O)[C@H](C)NC(=O)[C@@H]1CSSC[C@H](NC(=O)[C@H](CCCCN)NC(=O)CC[C@H](NC(=O)CCCCCCCCCCCCCCCCCCC(=O)O)C(=O)O)C(=O)N[C@@H](CC(N)=O)C(=O)N[C@@H]([C@@H](C)O)C(=O)N[C@@H](C)C(=O)N[C@@H]([C@@H](C)O)C(=O)N1)[C@@H](C)O)C(=O)N1CCC[C@H]1C(=O)N[C@@H](CO)C(=O)N[C@@H](CO)C(=O)N[C@H](C(=O)N[C@@H](CC(N)=O)C(=O)N[C@H](C(=O)NCC(=O)N[C@@H](Cc1c[nH]cn1)C(=O)N[C@@H](CC(N)=O)C(=O)N[C@H](C(=O)N[C@@H](Cc1ccc(O)cc1)C(N)=O)[C@@H](C)O)C(C)C)[C@@H](C)O, h-amylin derivative; disulfide bridge and C-terminal amide as told for human amylin; also called compound 17) | 2.35 nM |

biological target: T3, rat calcitonin receptor (rat, UniProt P32214 25-516); test: SPA competition with 125I-calcitonin, membranes of BHK cells with rat calcitonin receptor (Assay VIII)
T3 construct: whole, on cells; membranes of transiently transfected BHK tk'ts 13 cells (Assay VIII); also called rCTR; rat calcitonin (a) receptor
T3 sequence (looked up): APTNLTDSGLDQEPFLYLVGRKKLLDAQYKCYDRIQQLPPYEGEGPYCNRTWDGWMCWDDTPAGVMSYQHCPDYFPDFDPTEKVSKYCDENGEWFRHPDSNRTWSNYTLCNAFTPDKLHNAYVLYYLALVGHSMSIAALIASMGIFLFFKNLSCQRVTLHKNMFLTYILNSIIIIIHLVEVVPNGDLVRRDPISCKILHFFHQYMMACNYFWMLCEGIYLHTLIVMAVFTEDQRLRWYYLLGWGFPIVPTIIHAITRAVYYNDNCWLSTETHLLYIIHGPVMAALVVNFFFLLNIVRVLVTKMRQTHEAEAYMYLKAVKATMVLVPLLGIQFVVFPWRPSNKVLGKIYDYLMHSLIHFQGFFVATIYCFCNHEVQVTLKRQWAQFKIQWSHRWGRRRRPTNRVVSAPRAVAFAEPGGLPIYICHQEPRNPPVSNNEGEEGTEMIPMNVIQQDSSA

| Binder | IC50 |
| --- | --- |
| K([AEEA-γGlu-C20 diacid])CNTATCATQRLANFLRHSSPNFGAIPSSTNVGSRTY-NH2 (disulfide 2-7 (inferred), analogue of human amylin; also called compound 38) | 38 nM |
| K([γGlu-γGlu-C20 diacid])CNTATCATQRLADFLRHSSPNFGAIPSSTNVGSRTY-NH2 (disulfide 2-7 (inferred), analogue of human amylin; also called compound 52) | 159 nM |
